Data published in patent publication US20240000838A1 (SIMCERE INNOVATION, published 2024).
Residue numbers refer to the chain shown, from its start.

T1: CD5 on human T cells (autologous and allogeneic Pan-T cells) and on the T-ALL cell line CCRF-CEM (human, UniProt P06127 25-495)
T1 sequence (looked up): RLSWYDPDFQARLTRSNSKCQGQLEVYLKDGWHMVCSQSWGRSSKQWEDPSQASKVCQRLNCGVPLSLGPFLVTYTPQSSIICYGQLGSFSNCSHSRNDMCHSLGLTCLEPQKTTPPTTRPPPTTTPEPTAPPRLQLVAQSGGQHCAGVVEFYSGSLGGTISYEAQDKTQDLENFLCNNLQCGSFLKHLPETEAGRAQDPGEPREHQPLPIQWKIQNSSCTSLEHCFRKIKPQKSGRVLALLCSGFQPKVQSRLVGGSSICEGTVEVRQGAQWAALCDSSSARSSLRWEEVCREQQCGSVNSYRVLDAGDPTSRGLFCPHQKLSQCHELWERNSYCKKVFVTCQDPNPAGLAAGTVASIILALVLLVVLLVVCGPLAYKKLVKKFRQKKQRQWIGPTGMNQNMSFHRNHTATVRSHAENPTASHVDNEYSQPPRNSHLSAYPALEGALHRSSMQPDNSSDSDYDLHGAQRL

T2: Human CD5 Protein, HisTag (AcroBiosystems, Cat #CD5-H52H5) (human, UniProt P06127 25-372)
T2 construct: Bought staining reagent, detected with His-APC antibody; also called CD5 antigen; APC labeled CD5 antigen; not shown: His tag
T2 sequence (looked up): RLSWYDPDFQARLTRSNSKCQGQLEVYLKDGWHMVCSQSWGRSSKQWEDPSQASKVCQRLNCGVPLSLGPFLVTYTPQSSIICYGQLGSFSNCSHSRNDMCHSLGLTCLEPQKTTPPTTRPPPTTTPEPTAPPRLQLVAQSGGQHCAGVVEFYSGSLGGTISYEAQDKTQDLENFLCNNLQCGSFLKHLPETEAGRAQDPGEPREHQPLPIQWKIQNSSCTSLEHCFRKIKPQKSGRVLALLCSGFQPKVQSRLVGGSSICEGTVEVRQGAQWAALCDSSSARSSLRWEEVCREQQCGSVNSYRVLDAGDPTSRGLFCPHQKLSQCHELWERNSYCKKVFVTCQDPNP

B1: CD5/CD33 Dual-CAR, construct S043 (other)
chain: QVQLVQSGAEVKKPGSSVKVSCKASGYTFTDYNMHWVRQAPGQGLEWIGYIYPYNGGTGYNQKFKSKATITADESTNTAYMELSSLRSEDTAVYYCARGRPAMDYWGQGTLVTVSSGGGGSDIQMTQSPSSLSASVGDRVTITCRASQDINSYLSWFQQKPGKAPKTLIYRANRLESGVPSRFSGSGSGTDYTLTISSLQYEDFGIYYCQQYDESPWTFGGGTKLEIKGSTSGSGKPGSGEGSTKGEIQLVQSGGGLVKPGGSVRISCAASGYTFTNYGMNWVRQAPGKGLEWMGWINTHTGEPTYADSFKGRFTFSLDDSKNTAYLQINSLRAEDTAVYFCTRRGYDWYFDVWGQGTTVTVSSGGGGSDIQMTQSPSSLSASVGDRVTITCRASESVDNYGISFMNWFQQKPGKAPKLLIYAASNQGSGVPSRFSGSGSGTDFTLTISSLQPDDFATYYCQQSKEVPWTFGQGTKVEIKASTTTPAPRPPTPAPTIASQPLSLRPEACRPAAGGAVHTRGLDFACDIYIWAPLAGTCGVLLLSLVITLYCKRGRKKLLYIFKQPFMRPVQTTQEEDGCSCRFPEEEEGGCELRVKFSRSADAPAYKQGQNQLYNELNLGRREEYDVLDKRRGRDPEMGGKPRRKNPQEGLYNELQKDKMAEAYSEIGMKGERRRGKGHDGLYQGLSTATKDTYDALHMQALPPR
B2: CD5/CD33 Dual-CAR, construct S048 (other)
chain: DIQMTQSPSSLSASVGDRVTITCRASESVDNYGISFMNWFQQKPGKAPKLLIYAASNQGSGVPSRFSGSGSGTDFTLTISSLQPDDFATYYCQQSKEVPWTFGQGTKVEIKGGGGSGGGGSGGGGSQVQLVQSGAEVKKPGSSVKVSCKASGYTFTDYNMHWVRQAPGQGLEWIGYIYPYNGGTGYNQKFKSKATITADESTNTAYMELSSLRSEDTAVYYCARGRPAMDYWGQGTLVTVSSASTTTPAPRPPTPAPTIASQPLSLRPEACRPAAGGAVHTRGLDFACDIYIWAPLAGTCGVLLLSLVITLYCKRGRKKLLYIFKQPFMRPVQTTQEEDGCSCRFPEEEEGGCELRVKFSRSADAPAYKQGQNQLYNELNLGRREEYDVLDKRRGRDPEMGGKPRRKNPQEGLYNELQKDKMAEAYSEIGMKGERRRGKGHDGLYQGLSTATKDTYDALHMQALPPRGSGATNFSLLKQAGDVEENPGPMALPVTALLLPLALLLHAARPDIKMTQSPSSMYASLGERVTITCKASQDINSYLSWFHHKPGKSPKTLIYRANRLVDGVPSRFSGSGSGQDYSLTISSLDYEDMGIYYCQQYDESPWTFGGGTKLEMKGGGGSGGGGSGGGGSNIQLVQSGPELKKPGETVKISCKASGYTFTNYGMNWVKQAPGKGLRWMGWINTHTGEPTYADDFKGRFAFSLETSASTAYLQINNLKNEDTATYFCTRRGYDWYFDVWGAGTTVTVSSSGTTTPAPRPPTPAPTIASQPLSLRPEACRPAAGGAVHTRGLDFACDIYIWAPLAGTCGVLLLSLVITLYCKRGRKKLLYIFKQPFMRPVQTTQEEDGCSCRFPEEEEGGCELRVKFSRSADAPAYKQGQNQLYNELNLGRREEYDVLDKRRGRDPEMGGKPRRKNPQEGLYNELQKDKMAEAYSEIGMKGERRRGKGHDGLYQGLSTATKDTYDALHMQALPPRFE
B3: CD5/CD33 Dual-CAR, construct S049 (other)
chain: DIQMTQSPSSLSASVGDRVTITCRASESVDNYGISFMNWFQQKPGKAPKLLIYAASNQGSGVPSRFSGSGSGTDFTLTISSLQPDDFATYYCQQSKEVPWTFGQGTKVEIKGGGGSGGGGSGGGGSQVQLVQSGAEVKKPGSSVKVSCKASGYTFTDYNMHWVRQAPGQGLEWIGYIYPYNGGTGYNQKFKSKATITADESTNTAYMELSSLRSEDTAVYYCARGRPAMDYWGQGTLVTVSSASTTTPAPRPPTPAPTIASQPLSLRPEACRPAAGGAVHTRGLDFACDIYIWAPLAGTCGVLLLSLVITLYCKRGRKKLLYIFKQPFMRPVQTTQEEDGCSCRFPEEEEGGCELRVKFSRSADAPAYKQGQNQLYNELNLGRREEYDVLDKRRGRDPEMGGKPRRKNPQEGLYNELQKDKMAEAYSEIGMKGERRRGKGHDGLYQGLSTATKDTYDALHMQALPPRGSGATNFSLLKQAGDVEENPGPMALPVTALLLPLALLLHAARPDIQMTQSPSSLSASVGDRVTITCRASQDINSYLSWFQQKPGKAPKTLIYRANRLESGVPSRFSGSGSGTDYTLTISSLQYEDFGIYYCQQYDESPWTFGGGTKLEIKGGGGSGGGGSGGGGSEIQLVQSGGGLVKPGGSVRISCAASGYTFTNYGMNWVRQAPGKGLEWMGWINTHTGEPTYADSFKGRFTFSLDDSKNTAYLQINSLRAEDTAVYFCTRRGYDWYFDVWGQGTTVTVSSSGTTTPAPRPPTPAPTIASQPLSLRPEACRPAAGGAVHTRGLDFACDIYIWAPLAGTCGVLLLSLVITLYCKRGRKKLLYIFKQPFMRPVQTTQEEDGCSCRFPEEEEGGCELRVKFSRSADAPAYKQGQNQLYNELNLGRREEYDVLDKRRGRDPEMGGKPRRKNPQEGLYNELQKDKMAEAYSEIGMKGERRRGKGHDGLYQGLSTATKDTYDALHMQALPPRFE
B4: CD33 CAR CAR33-4, construct S014 (other)
chain: QVQLQQPGAEVVKPGASVKMSCKASGYTFTSYYIHWIKQTPGQGLEWVGVIYPGNDDISYNQKFQGKATLTADKSSTTAYMQLSSLTSEDSAVYYCAREVRLRYFDVWGQGTTVTVSSGGGGSGGGGSGGGGSEIVLTQSPGSLAVSPGERVTMSCKSSQSVFFSSSQKNYLAWYQQIPGQSPRLLIYWASTRESGVPDRFTGSGSGTDFTLTISSVQPEDLAIYYCHQYLSSRTFGQGTKLEIKRASTTTPAPRPPTPAPTIASQPLSLRPEACRPAAGGAVHTRGLDFACDIYIWAPLAGTCGVLLLSLVITLYCKRGRKKLLYIFKQPFMRPVQTTQEEDGCSCRFPEEEEGGCELRVKFSRSADAPAYKQGQNQLYNELNLGRREEYDVLDKRRGRDPEMGGKPRRKNPQEGLYNELQKDKMAEAYSEIGMKGERRRGKGHDGLYQGLSTATKDTYDALHMQALPPR
notes: Chimeric antigen receptor on T cells
B5: CD33 CAR CAR33-6, construct S016 (other)
chain: B4 chain with Q65K, Q110A, E134N, V136M, G142S, P148A, R151K, R184K, P219S, Q238G
notes: as for B4
B6: CD5 CAR CAR5-2, construct S006 (other)
chain: NIQLVQSGPELKKPGETVKISCKASGYTFTNYGMNWVKQAPGKGLRWMGWINTHTGEPTYADDFKGRFAFSLETSASTAYLQINNLKNEDTATYFCTRRGYDWYFDVWGAGTTVTVSSGGGGSGGGGSGGGGSDIKMTQSPSSMYASLGERVTITCKASQDINSYLSWFHHKPGKSPKTLIYRANRLVDGVPSRFSGSGSGQDYSLTISSLDYEDMGIYYCQQYDESPWTFGGGTKLEMKASTTTPAPRPPTPAPTIASQPLSLRPEACRPAAGGAVHTRGLDFACDIYIWAPLAGTCGVLLLSLVITLYCKRGRKKLLYIFKQPFMRPVQTTQEEDGCSCRFPEEEEGGCELRVKFSRSADAPAYKQGQNQLYNELNLGRREEYDVLDKRRGRDPEMGGKPRRKNPQEGLYNELQKDKMAEAYSEIGMKGERRRGKGHDGLYQGLSTATKDTYDALHMQALPPR
notes: as for B4
B7: CD33 CAR CAR33-1, construct S011 (other)
chain: DIQMTQSPSSLSASVGDRVTITCRASESVDNYGISFMNWFQQKPGKAPKLLIYAASNQGSGVPSRFSGSGSGTDFTLTISSLQPDDFATYYCQQSKEVPWTFGQGTKVEIKGGGGSGGGGSGGGGSQVQLVQSGAEVKKPGSSVKVSCKASGYTFTDYNMHWVRQAPGQGLEWIGYIYPYNGGTGYNQKFKSKATITADESTNTAYMELSSLRSEDTAVYYCARGRPAMDYWGQGTLVTVSSASTTTPAPRPPTPAPTIASQPLSLRPEACRPAAGGAVHTRGLDFACDIYIWAPLAGTCGVLLLSLVITLYCKRGRKKLLYIFKQPFMRPVQTTQEEDGCSCRFPEEEEGGCELRVKFSRSADAPAYKQGQNQLYNELNLGRREEYDVLDKRRGRDPEMGGKPRRKNPQEGLYNELQKDKMAEAYSEIGMKGERRRGKGHDGLYQGLSTATKDTYDALHMQALPPR
notes: as for B4
B8: CD33 CAR CAR33-2, construct S012 (other)
chain: QVQLVQSGAEVKKPGSSVKVSCKASGYTFTDYNMHWVRQAPGQGLEWIGYIYPYNGGTGYNQKFKSKATITADESTNTAYMELSSLRSEDTAVYYCARGRPAMDYWGQGTLVTVSSGGGGSGGGGSGGGGSDIQMTQSPSSLSASVGDRVTITCRASESVDNYGISFMNWFQQKPGKAPKLLIYAASNQGSGVPSRFSGSGSGTDFTLTISSLQPDDFATYYCQQSKEVPWTFGQGTKVEIKASTTTPAPRPPTPAPTIASQPLSLRPEACRPAAGGAVHTRGLDFACDIYIWAPLAGTCGVLLLSLVITLYCKRGRKKLLYIFKQPFMRPVQTTQEEDGCSCRFPEEEEGGCELRVKFSRSADAPAYKQGQNQLYNELNLGRREEYDVLDKRRGRDPEMGGKPRRKNPQEGLYNELQKDKMAEAYSEIGMKGERRRGKGHDGLYQGLSTATKDTYDALHMQALPPR
notes: as for B4

Assays:
[1] = target: T1, CD5 on human T cells (autologous and …); assay: cell-based or functional assay
[2] = target: T3, CD33 human protein-PE (Sino Biological, 12238-HCCH_P) (human, UniProt P20138 18-259, PE label); assay: flow cytometry; CAR-T cells stained with CD33 human protein-PE
T3 construct: Bought staining reagent; also called CD33 antigen
Protocol: (§1) CD3 and CD5 are stained with a CD3-FITC antibody (BD Biosciences, #555339) and a CD5-APC antibody (BD Biosciences, #555355) for 30 minutes at R.T. in the dark. CAR5 surface expression is detected by staining with Human CD5 Protein, HisTag (AcroBiosystems, Cat #CD5-H52H5) for 1 hour at R.T., washed and then incubated with His-APC antibody (R&D Systems, IC050A) for 30 minutes at R.T. in the dark. CAR33 expression is stained with CD33 human protein-PE (Sino Biological, 12238-HCCH_P) for 1 hour at R.T. All the staining is performed at 1:10 dilutions. DAPI (Thermo Scientific, Cat #BV-421, 1:5000) is used to stain dead cells before running by the Attune NxT Flow Cytometer (Thermo Fisher Scientific). Data is further analyzed by either using Attune NxT flow software or FlowJo software.

[3] = target: T2, Human CD5 Protein, HisTag …; assay: flow cytometry; CAR-T cells stained with soluble human CD5-His and His-APC antibody
Protocol: as §1

T3 sequence (P20138 18-259 limits assumed): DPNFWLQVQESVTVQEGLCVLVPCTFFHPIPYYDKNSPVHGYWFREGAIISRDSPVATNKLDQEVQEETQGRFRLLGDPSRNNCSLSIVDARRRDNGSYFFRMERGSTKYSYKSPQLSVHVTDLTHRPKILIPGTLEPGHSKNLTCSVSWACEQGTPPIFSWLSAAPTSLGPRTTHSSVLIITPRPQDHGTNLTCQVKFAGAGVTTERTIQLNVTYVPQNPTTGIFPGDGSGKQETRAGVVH

Binder	elimination of CCRF-CEM cells after 18 hours (luciferase-based killing assay) [1] [%]	binding result [2]	also measured
B1	~100	–	–
B2	~100	–	–
B3	~100	–	–
B4	–	binds	–
B5	–	binds	–
B6	–	–	% of T cells stained with CD5 antigen (CAR5 expression) [3]: > 80%
B7	–	binds	–
B8	–	binds	–
